Series [1] deals with the molecule itself. In words: AUC in detergent solution (C8E5); self-association to homodimer. As to the method:
The dimer design with the shortest hydrophobic span (15 residues, TMHC2_S) was poorly behaved in both E. coli and mammalian cells, but the dimer designs with longer spans TMHC2, TMHC2_E and TMHC2_L localized to the cell membrane when expressed in HEK293T cells (data not shown) and in E. coli. The designed proteins were purified by extracting the E. coli membrane fraction with detergent, followed by nickel-NTA chromatography and size exclusion chromatography (SEC) with a yield of ˜2 mg/L (FIG. 6A-B). […] For the single chain scTMHC2 the major species in SEC was the monomer with a small side peak that was readily removed by purification (FIG. 6B).
Analytical ultracentrifugation (sedimentation velocity and sedimentation equilibrium) experiments were carried out using a Beckman XL-I analytical ultracentrifuge (Beckman Coulter) equipped with an eight-cell An-50 Ti rotor. The proteins were run in 20 mM sodium phosphate, pH 7.0, containing 200 mM NaCl supplemented with 0.5% C8E5, no density matching was necessary and the solvent density was calculated as 1.0075 g mL⁻¹. The partial specific volume of the protein was calculated by the program Sednterp™ (37). For sedimentation velocity, absorbance at 230 nm versus radial location was recorded during centrifugation at 50,000 rpm at 20° C. […] The data of sedimentation velocity and sedimentation equilibrium were analyzed using Sedfit™ and Sedphat™.

Series [2] deals with the molecule itself. Kind of series: AUC in detergent solution; self-association to homotrimer. From the text:
We used a similar approach to design a transmembrane trimer with six membrane spanning helices (TMHC3) based on the 5L6HC3_1 scaffold (PDB ID: 5IZS). Guided by the results with the C2 designs, we chose a hydrophobic span of ˜30 Å (20 residues) (FIG. 4A). The design was expressed in E. coli and purified to homogeneity, eluting on a gel filtration column as a single homogeneous species (FIG. 5C).
Analytical ultracentrifugation (sedimentation velocity and sedimentation equilibrium) experiments were carried out using a Beckman XL-I analytical ultracentrifuge (Beckman Coulter) equipped with an eight-cell An-50 Ti rotor. The proteins were run in 20 mM sodium phosphate, pH 7.0, containing 200 mM NaCl supplemented with 0.5% C8E5, no density matching was necessary and the solvent density was calculated as 1.0075 g mL⁻¹. The partial specific volume of the protein was calculated by the program Sednterp™ (37). For sedimentation velocity, absorbance at 230 nm versus radial location was recorded during centrifugation at 50,000 rpm at 20° C. For sedimentation equilibrium, data were collected by UV detector at 20° C. for at least two protein concentrations at three rotor speeds. The data of sedimentation velocity and sedimentation equilibrium were analyzed using Sedfit™ and Sedphat™.

Consider two proteins from patent US20210363214A1 (University of Washington, published 2021).

B1: TMHC2 (transmembrane hairpin C2) (designed binder)
chain: MTRTEIIRELERSLRLQLVLAIFLMALLIVLLWLQQNGSSNNNVNYLLIVILVLVLVIVALAVTQKYLVEQLKRQD
notes: De novo designed two-helix transmembrane hairpin, entered here as one protomer; It was expressed from pET-28b with an N-terminal hexa-histidine tag and a thrombin site
With B1, in series [1], the binding result is recorded as “binds”.

B2: TMHC3 (designed binder)
chain: MSEELRAVADLQRLNIELARKLLIAVALLQLLNILLVMLTSELTDEKTILWMIVIVMFLSLAIVIVALREIRRAKEESRKIADESR
notes: De novo designed hairpin, entered as one protomer; It self-associates into a homotrimer with six TM helices; also called designed transmembrane trimer TMHC3; not shown: C-terminal hexa-histidine tag from pET-29b (gene without stop codon, NdeI/XhoI)
Consider B2, for which, in series [2], the binding result is “binds”.
